Patent US12467929

Experiments:
[1] = target: recombinant UBE3A protein (Homo sapiens (Human)) (UniProt Q05086); assay: 3-step Simoa; capture GTX; UBE3A 31.3 ng/ml
[2] = target: recombinant UBE3A protein (Homo sapiens (Human)) (UniProt Q05086); assay: 2-step Simoa; capture GTX; UBE3A 0.488 ng/ml
[3] = target: recombinant UBE3A protein (Homo sapiens (Human)) (UniProt Q05086); assay: 3-step Simoa; capture GTX; UBE3A 0.488 ng/ml
[4] = target: recombinant UBE3A protein (Homo sapiens (Human)) (UniProt Q05086); assay: Simoa; capture GTX; 3E5 0.8 ug/ml; UBE3A 20.0 ng/ml
[5] = target: recombinant UBE3A protein (Homo sapiens (Human)) (UniProt Q05086); assay: Simoa; capture GTX; 3E5 0.1 ug/ml; UBE3A 0.800 ng/ml
[6] = target: recombinant UBE3A protein (Homo sapiens (Human)) (UniProt Q05086); assay: Simoa; capture GTX; 3E5 0.2 ug/ml; UBE3A 0.160 ng/ml
[7] = target: recombinant UBE3A protein (Homo sapiens (Human)) (UniProt Q05086); assay: Simoa; capture GTX; 3E5 0.2 ug/ml; UBE3A 0.00128 ng/ml
[8] = target: recombinant UBE3A protein (Homo sapiens (Human)) (UniProt Q05086); assay: Simoa; capture GTX; 3E5 0.8 ug/ml; UBE3A 0.00128 ng/ml
[9] = target: recombinant UBE3A protein (Homo sapiens (Human)) (UniProt Q05086); assay: Simoa head-to-head, Table 11; capture GTX; UBE3A 20.0 ng/ml
[10] = target: recombinant UBE3A protein (Homo sapiens (Human)) (UniProt Q05086); assay: Simoa head-to-head, Table 11; capture GTX; UBE3A 4.00 ng/ml
[11] = target: recombinant UBE3A protein (Homo sapiens (Human)) (UniProt Q05086); assay: Simoa head-to-head, Table 11; capture MS 2F6; UBE3A 20.0 ng/ml
[12] = target: recombinant UBE3A protein (Homo sapiens (Human)) (UniProt Q05086); assay: Simoa head-to-head, Table 11; capture MS 2F6; UBE3A 0.032 ng/ml
[13] = target: recombinant UBE3A protein (Homo sapiens (Human)) (UniProt Q05086); assay: Simoa; capture GTX + helper beads; 3E5 0.2 ug/ml; UBE3A 20.0 ng/ml
[14] = target: recombinant UBE3A protein (Homo sapiens (Human)) (UniProt Q05086); assay: Simoa; capture GTX + helper beads; 3E5 0.4 ug/ml; UBE3A 4.00 ng/ml
[15] = target: recombinant UBE3A protein (Homo sapiens (Human)) (UniProt Q05086); assay: Simoa; capture GTX + helper beads; 3E5 0.2 ug/ml; UBE3A 0.800 ng/ml
[16] = target: recombinant UBE3A protein (Homo sapiens (Human)) (UniProt Q05086); assay: Simoa; capture GTX + helper beads; 3E5 0.2 ug/ml; UBE3A 0.0320 ng/ml
[17] = target: recombinant UBE3A protein (Homo sapiens (Human)) (UniProt Q05086); assay: Simoa; capture GTX, no helper beads; 3E5 0.1 ug/ml; UBE3A 4.00 ng/ml
[18] = target: recombinant UBE3A protein (Homo sapiens (Human)) (UniProt Q05086); assay: Simoa; capture GTX + helper beads; 3E5 0.1 ug/ml; UBE3A 0.00640 ng/ml
[19] = target: recombinant UBE3A protein (Homo sapiens (Human)) (UniProt Q05086); assay: Simoa; capture GTX, no helper beads; 3E5 0.2 ug/ml; UBE3A 0.00128 ng/ml
[20] = target: recombinant UBE3A protein (Homo sapiens (Human)) (UniProt Q05086); assay: Simoa; capture GTX, no helper beads; 3E5 0.4 ug/ml; UBE3A 0.00128 ng/ml

Sequence of UniProt Q05086 (Q05086 whole entry): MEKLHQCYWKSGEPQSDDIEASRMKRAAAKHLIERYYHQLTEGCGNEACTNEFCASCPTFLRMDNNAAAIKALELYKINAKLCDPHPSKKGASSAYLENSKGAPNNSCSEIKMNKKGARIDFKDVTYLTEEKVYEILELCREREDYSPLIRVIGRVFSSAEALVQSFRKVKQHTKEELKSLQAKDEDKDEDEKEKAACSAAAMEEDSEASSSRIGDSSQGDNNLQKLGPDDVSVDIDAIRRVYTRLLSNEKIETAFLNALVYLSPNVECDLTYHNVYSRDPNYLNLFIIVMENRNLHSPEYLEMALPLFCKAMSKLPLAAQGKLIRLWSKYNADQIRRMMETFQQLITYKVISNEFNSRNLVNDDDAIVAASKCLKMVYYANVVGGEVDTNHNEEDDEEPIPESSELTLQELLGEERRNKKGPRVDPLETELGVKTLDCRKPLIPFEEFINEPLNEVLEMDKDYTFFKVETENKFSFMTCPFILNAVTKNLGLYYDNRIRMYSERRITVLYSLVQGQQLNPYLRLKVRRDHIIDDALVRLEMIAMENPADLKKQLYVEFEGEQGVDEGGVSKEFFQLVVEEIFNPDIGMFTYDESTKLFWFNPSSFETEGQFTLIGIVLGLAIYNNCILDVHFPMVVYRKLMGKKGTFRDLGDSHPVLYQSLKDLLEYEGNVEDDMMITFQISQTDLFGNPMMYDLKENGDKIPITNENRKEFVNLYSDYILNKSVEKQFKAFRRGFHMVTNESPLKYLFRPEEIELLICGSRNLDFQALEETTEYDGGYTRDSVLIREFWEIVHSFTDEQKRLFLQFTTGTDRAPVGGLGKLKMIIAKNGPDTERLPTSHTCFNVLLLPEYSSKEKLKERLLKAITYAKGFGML

Work on NB500-240 (Novus) (antibody) yielded an AEB1 [1] of 0.0425, an AEB2 [1] of 0.046 and an Ave AEB [1] of 0.0443. The Signal to Background [1] was 20.3, the AEB1 [2] was 0.0073 and the AEB2 [2] was 0.0069. It also gave an Ave AEB [2] of 0.0071, a Signal to Background [2] of 2.16 and an AEB1 [3] of 0.0023. It also gave an AEB2 [3] of 0.0026, an Ave AEB [3] of 0.0025 and a Signal to Background [3] of 0.759.
Substance “anti-UBE3A antibody 3E5 (SAB1404508-100 ug, Millipore-Sigma)” has an AEB1 [4] of 9.16, an AEB2 [4] of 10.3 and an AEB3 [4] of 9.37. The Average AEB [4] was 9.62, the Signal to Background [4] was 78.5 and the AEB1 [5] was 0.257. The AEB2 [5] was 0.27, the AEB3 [5] was 0.245 and the Average AEB [5] was 0.257. For the same substance, the Signal to Background [5] was 13.3, the AEB1 [6] was 0.125 and the AEB2 [6] was 0.123. For the same substance, the AEB3 [6] was 0.121, the Average AEB [6] was 0.123 and the Signal to Background [6] was 3.14. It also gave an AEB1 [7] of 0.0457, an AEB2 [7] of 0.0439 and an AEB3 [7] of 0.0421. The Average AEB [7] was 0.0439, the Signal to Background [7] was 1.12 and the AEB1 [8] was 0.109. For the same substance, the AEB2 [8] was 0.109, the AEB3 [8] was 0.112 and the Average AEB [8] was 0.11. For the same substance, the Signal to Background [8] was 0.897, the AEB1 [9] was 0.78 and the AEB2 [9] was 0.821. The Ave AEB [9] was 0.8, the Signal to Background [9] was 97.8 and the AEB1 [10] was 0.269. The AEB2 [10] was 0.262, the Ave AEB [10] was 0.266 and the Signal to Background [10] was 32.4. It also gave an AEB1 [11] of 0.352, an AEB2 [11] of 0.348 and an Ave AEB [11] of 0.35. The Signal to Background [11] was 92.5, the AEB1 [12] was 0.0032 and the AEB2 [12] was 0.0043. It also gave an Ave AEB [12] of 0.0037, a Signal to Background [12] of 0.986 and an AEB1 [13] of 5.63. The AEB2 [13] was 5.39, the Average AEB [13] was 5.51 and the Signal to Background [13] was 570. For the same substance, the AEB1 [14] was 1.16, the AEB2 [14] was 1.12 and the Average AEB [14] was 1.14. For the same substance, the Signal to Background [14] was 58.5, the AEB1 [15] was 0.252 and the AEB2 [15] was 0.261. For the same substance, the Average AEB [15] was 0.257, the Signal to Background [15] was 26.5 and the AEB1 [16] was 0.0226. The AEB2 [16] was 0.0236, the Average AEB [16] was 0.0231 and the Signal to Background [16] was 2.39. It also gave an AEB1 [17] of 0.607, an AEB2 [17] of 0.603 and an Average AEB [17] of 0.605. It also gave a Signal to Background [17] of 106, an AEB1 [18] of 0.0065 and an AEB2 [18] of 0.0045. It also gave an Average AEB [18] of 0.0055, a Signal to Background [18] of 0.962 and an AEB1 [19] of 0.0099. For the same substance, the AEB2 [19] was 0.0139, the Average AEB [19] was 0.0119 and the Signal to Background [19] was 1.23. The AEB1 [20] was 0.0195, the AEB2 [20] was 0.0213 and the Average AEB [20] was 0.0204. For the same substance, the Signal to Background [20] was 1.04.
